Among the data in article PMC8596624 are Kd values, retold here.

The data set deals with UKPV, spike on pseudotyped lentivirus, Alpha (SARS-CoV-2 (B.1.1.7, Alpha)) (UniProt P0DTC2). Nature of the data set: dot blot.

“TTCCGGTTAATTTATGCTCTACCCGTCCACCTACCGGAATTTTTTTTTTTTTTTTTTTTTTTTTTTTTTACGGGTTTGGCGTCGGGCCTGGCGGGGGGATAGTGCGGT [DSA1N5 (T30 linker)]” had a dissociation constant (Kd) of 2.3 pM.
